Reference: US20200297818A1 (ZEALAND PHARMA A S, published 2020)
*1 amine or outer side, *2 acyl side, *3 side chain or, on linkers, in order; H or OH if unused. Side-chain parts run from the residue outwards. [ ]: non-standard residue; d: D form. The star is where a group is joined. C20 diacid = O=C(O)CCCCCCCCCCCCCCCCCCC(=O)*; C18 diacid = O=C(O)CCCCCCCCCCCCCCCCC(=O)*; γGlu = O=C(O)[C@H](CCC(=O)[*:2])N[*:1]; AEEA = NCCOCCOCC(=O)O; Aib = CC(C)(N)C(=O)O

T1: human GLP-2 receptor (hGLP2-R) (human, UniProt O95838 1-553)
T1 sequence (looked up): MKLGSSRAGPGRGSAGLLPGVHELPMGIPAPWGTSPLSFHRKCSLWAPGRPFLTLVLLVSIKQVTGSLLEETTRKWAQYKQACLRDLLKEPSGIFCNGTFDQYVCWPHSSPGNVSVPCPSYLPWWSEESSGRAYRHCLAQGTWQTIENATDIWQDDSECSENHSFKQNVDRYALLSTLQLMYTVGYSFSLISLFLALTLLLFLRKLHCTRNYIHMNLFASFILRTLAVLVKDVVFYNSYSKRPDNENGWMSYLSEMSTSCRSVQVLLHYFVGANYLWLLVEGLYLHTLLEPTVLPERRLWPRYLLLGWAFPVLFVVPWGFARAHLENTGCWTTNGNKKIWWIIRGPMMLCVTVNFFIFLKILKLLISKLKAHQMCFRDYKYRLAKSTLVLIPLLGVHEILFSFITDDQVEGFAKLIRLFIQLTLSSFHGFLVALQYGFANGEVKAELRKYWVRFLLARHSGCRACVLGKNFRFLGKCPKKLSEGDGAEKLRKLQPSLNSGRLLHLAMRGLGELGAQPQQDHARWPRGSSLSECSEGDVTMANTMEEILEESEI


Columns and labels:
[1] = target: human glucagon-like peptide 1 receptor (GLP-1 R) (human, UniProt P43220 24-463); test: cell-based or functional assay
[2] = target: T1, human GLP-2 receptor (hGLP2-R); test: cell-based or functional assay

EC50 GLP-1 (nM); cAMP response [1] [nM]	EC50 GLP-2 (nM); cAMP response [2] [nM]	Binder
0.093	0.083	H-H[Aib]EGSFTSELATILDK([AEEA-Lys-Glu-Lys-γGlu-C20 diacid])QAARDFIAWLIEHKITD-OH [Compound 57]
0.076	0.24	H-H[Aib]EGSFTSEK([AEEA-Lys-Glu-Lys-γGlu-C20 diacid])ATILDEQAARDFIAWLIEHKITD-OH [Compound 53]
0.27	0.15	H-H[Aib]EGSFTSELATILDAK([AEEA-Lys-Glu-Lys-γGlu-C20 diacid])AARDFIAWLIEHKITD-OH [Compound 62]
0.11	0.78	H-H[Aib]EGSFTSEK([AEEA-AEEA-Lys-Glu-Lys-γGlu-C20 diacid])ATILDEQAARDFIAWLIEHKITD-OH [Compound 55]
0.033	0.076	H-H[Aib]EGTFTSELATILDK([AEEA-Lys-Glu-Lys-γGlu-C20 diacid])QAARDFIAWLIEHKITD-OH [Compound 56]
0.02	0.075	H-H[Aib]EGTFTSELATILDK([AEEA-Lys-Glu-Lys-γGlu-C20 diacid])QAARDFIAWLIQHKITD-OH [Compound 52]
39	–	HGDGSFSDEMNTILDNLAARDFINWLIQTKITD [Teduglutide]
0.088	0.11	H-H[Aib]EGSFTSELATILDK([AEEA-Lys-Glu-Lys-γGlu-C20 diacid])KAARDFIAWLIEHKITD-OH [Compound 59]
0.47	0.054	H-H[Aib]EGTFSSELATILDK([AEEA-Lys-Glu-Lys-γGlu-C20 diacid])QAARDFIAWLIQHKITD-OH [Compound 48]
0.63	0.35	HXEGTFSSELATILDXEAARDFIAWLIEHKITD (HELM PEPTIDE1{H.[Aib].E.G.T.F.S.S.E.L.A.T.I.L.D.K.E.A.A.R.D.F.I.A.W.L.I.E.H.K.I.T.D}|PEPTIDE2{[O=C(O)CCCCCCCCCCCCCCCCC(=O)[*:2]].[gGlu]}$PEPTIDE1,PEPTIDE2,16:R3-2:R2$$$V2.0; SMILES CC[C@H](C)[C@H](NC(=O)[C@H](Cc1ccccc1)NC(=O)[C@H](CC(=O)O)NC(=O)[C@H](CCCNC(=N)N)NC(=O)[C@H](C)NC(=O)[C@H](C)NC(=O)[C@H](CCC(=O)O)NC(=O)[C@H](CCCCNC(=O)CC[C@H](NC(=O)CCCCCCCCCCCCCCCCC(=O)O)C(=O)O)NC(=O)[C@H](CC(=O)O)NC(=O)[C@H](CC(C)C)NC(=O)[C@@H](NC(=O)[C@@H](NC(=O)[C@H](C)NC(=O)[C@H](CC(C)C)NC(=O)[C@H](CCC(=O)O)NC(=O)[C@H](CO)NC(=O)[C@H](CO)NC(=O)[C@H](Cc1ccccc1)NC(=O)[C@@H](NC(=O)CNC(=O)[C@H](CCC(=O)O)NC(=O)C(C)(C)NC(=O)[C@@H](N)Cc1c[nH]cn1)[C@@H](C)O)[C@@H](C)O)[C@@H](C)CC)C(=O)N[C@@H](C)C(=O)N[C@@H](Cc1c[nH]c2ccccc12)C(=O)N[C@@H](CC(C)C)C(=O)N[C@H](C(=O)N[C@@H](CCC(=O)O)C(=O)N[C@@H](Cc1c[nH]cn1)C(=O)N[C@@H](CCCCN)C(=O)N[C@H](C(=O)N[C@H](C(=O)N[C@@H](CC(=O)O)C(=O)O)[C@@H](C)O)[C@@H](C)CC)[C@@H](C)CC) [Compound 1]
0.13	0.25	HXEGSFTSELATILDXEAARDFIAWLIEHKITD (HELM PEPTIDE1{H.[Aib].E.G.S.F.T.S.E.L.A.T.I.L.D.K.E.A.A.R.D.F.I.A.W.L.I.E.H.K.I.T.D}|PEPTIDE2{[O=C(O)CCCCCCCCCCCCCCCCC(=O)[*:2]].[gGlu]}$PEPTIDE1,PEPTIDE2,16:R3-2:R2$$$V2.0; SMILES CC[C@H](C)[C@H](NC(=O)[C@H](Cc1ccccc1)NC(=O)[C@H](CC(=O)O)NC(=O)[C@H](CCCNC(=N)N)NC(=O)[C@H](C)NC(=O)[C@H](C)NC(=O)[C@H](CCC(=O)O)NC(=O)[C@H](CCCCNC(=O)CC[C@H](NC(=O)CCCCCCCCCCCCCCCCC(=O)O)C(=O)O)NC(=O)[C@H](CC(=O)O)NC(=O)[C@H](CC(C)C)NC(=O)[C@@H](NC(=O)[C@@H](NC(=O)[C@H](C)NC(=O)[C@H](CC(C)C)NC(=O)[C@H](CCC(=O)O)NC(=O)[C@H](CO)NC(=O)[C@@H](NC(=O)[C@H](Cc1ccccc1)NC(=O)[C@H](CO)NC(=O)CNC(=O)[C@H](CCC(=O)O)NC(=O)C(C)(C)NC(=O)[C@@H](N)Cc1c[nH]cn1)[C@@H](C)O)[C@@H](C)O)[C@@H](C)CC)C(=O)N[C@@H](C)C(=O)N[C@@H](Cc1c[nH]c2ccccc12)C(=O)N[C@@H](CC(C)C)C(=O)N[C@H](C(=O)N[C@@H](CCC(=O)O)C(=O)N[C@@H](Cc1c[nH]cn1)C(=O)N[C@@H](CCCCN)C(=O)N[C@H](C(=O)N[C@H](C(=O)N[C@@H](CC(=O)O)C(=O)O)[C@@H](C)O)[C@@H](C)CC)[C@@H](C)CC) [Compound 2]
0.042	0.33	HXEGTFTSELATILDXEAARDFIAWLIEHKITD (HELM PEPTIDE1{H.[Aib].E.G.T.F.T.S.E.L.A.T.I.L.D.K.E.A.A.R.D.F.I.A.W.L.I.E.H.K.I.T.D}|PEPTIDE2{[O=C(O)CCCCCCCCCCCCCCCCC(=O)[*:2]].[gGlu]}$PEPTIDE1,PEPTIDE2,16:R3-2:R2$$$V2.0; SMILES CC[C@H](C)[C@H](NC(=O)[C@H](Cc1ccccc1)NC(=O)[C@H](CC(=O)O)NC(=O)[C@H](CCCNC(=N)N)NC(=O)[C@H](C)NC(=O)[C@H](C)NC(=O)[C@H](CCC(=O)O)NC(=O)[C@H](CCCCNC(=O)CC[C@H](NC(=O)CCCCCCCCCCCCCCCCC(=O)O)C(=O)O)NC(=O)[C@H](CC(=O)O)NC(=O)[C@H](CC(C)C)NC(=O)[C@@H](NC(=O)[C@@H](NC(=O)[C@H](C)NC(=O)[C@H](CC(C)C)NC(=O)[C@H](CCC(=O)O)NC(=O)[C@H](CO)NC(=O)[C@@H](NC(=O)[C@H](Cc1ccccc1)NC(=O)[C@@H](NC(=O)CNC(=O)[C@H](CCC(=O)O)NC(=O)C(C)(C)NC(=O)[C@@H](N)Cc1c[nH]cn1)[C@@H](C)O)[C@@H](C)O)[C@@H](C)O)[C@@H](C)CC)C(=O)N[C@@H](C)C(=O)N[C@@H](Cc1c[nH]c2ccccc12)C(=O)N[C@@H](CC(C)C)C(=O)N[C@H](C(=O)N[C@@H](CCC(=O)O)C(=O)N[C@@H](Cc1c[nH]cn1)C(=O)N[C@@H](CCCCN)C(=O)N[C@H](C(=O)N[C@H](C(=O)N[C@@H](CC(=O)O)C(=O)O)[C@@H](C)O)[C@@H](C)CC)[C@@H](C)CC) [Compound 3]
0.13	0.2	H-H[Aib]EGSFTSELATILEGK([AEEA-Lys-Glu-Lys-γGlu-C20 diacid])AARDFIAWLIEHKITD-OH [Compound 61]
0.02	0.18	H-H[Aib]EGTFTSELATILDK([Lys-Glu-Lys-γGlu-C20 diacid])QAARDFIAWLIQHKITD-OH [Compound 51]
0.034	0.99	H-H[Aib]EGTFTSEK([AEEA-Lys-Glu-Lys-γGlu-C20 diacid])ATILDEQAARDFIAWLIEHKITD-OH [Compound 54]
0.31	0.056	H-H[Aib]EGTFSSELATILDK([AEEA-Lys-Glu-Lys-γGlu-C20 diacid])QAARDFIAWLIEHKITD-OH [Compound 50]
0.089	0.09	H-H[Aib]EGSFTSELATILDK([AEEA-Lys-Glu-Lys-γGlu-C20 diacid])QAARDFIAWLIAHKITD-OH [Compound 58]
0.097	0.074	H-H[Aib]EGSFTSELATILDK([AEEA-AEEA-Lys-Glu-Lys-γGlu-C20 diacid])QAARDFIAWLIEHKITD-OH [Compound 60]
0.27	0.044	H-H[Aib]EGTFSSELATILDK([AEEA-Lys-Glu-Lys-γGlu-C18 diacid])QAARDFIAWLIEHKITD-OH [Compound 49]
0.44	0.048	H-H[Aib]EGTFSSELATILDK([AEEA-Lys-Glu-Lys-γGlu-C18 diacid])QAARDFIAWLIQHKITD-OH [Compound 47]
